Measured values as given in patent US20160304622A1 (GENEFRONTIER, published 2016).

What was measured:
Assay in all cases: immunoblotting after reducing SDS-PAGE
[1] = target: purified human MMP-9 (Daiichi Fine Chemical) (human, UniProt P14780 20-707, limits assumed)
From the text: (§1) Recombinant proteins of human ADAMTS1 (R&D Systems), ADAMTS4, ADAMTS5 (R&D Systems), ADAMTS15 (R&D Systems), ADAM10 (R&D Systems), ADAM12 (Mochida Pharmaceutical Co., Ltd., Tokyo, Japan), ADAM17 (R&D Systems) and MMP-13 (Millipore, Billerica, Mass.) and purified human MMP-1, MMP-2, MMP-3 and MMP-9 (Daiichi Fine Chemical, Co., Ltd., Toyama, Japan) were subjected to sodium dodecyl sulfate-polyacrylamide gel electrophoresis (SDS-PAGE) under reducing conditions, and the samples resolved on the gels were transferred onto polyvinylidene difluoride (PVDF) membranes. […] After washing with phosphate buffered saline containing 0.1% Tween 20, the membranes were reacted with horseradish peroxidase-conjugated secondary antibody against human IgG (Invitrogen, Carlsbad, Calif.) for 1 h at room temperature. A chemiluminescence reagent (Pierce ECL western blotting substrate; Thermo Fisher Scientific, Waltham, Mass.) was used to make the labeled protein bands visible. All the samples were also examined on silver-stained gels, which were prepared by silver stain kit (Cosmo Bio Co., Ltd, […].).

[2] = target: recombinant human ADAM17 (R&D Systems) (human, UniProt P78536 215-671, limits assumed)
Chain of recombinant human ADAM17 (R&D Systems) (P78536 215-671 limits assumed): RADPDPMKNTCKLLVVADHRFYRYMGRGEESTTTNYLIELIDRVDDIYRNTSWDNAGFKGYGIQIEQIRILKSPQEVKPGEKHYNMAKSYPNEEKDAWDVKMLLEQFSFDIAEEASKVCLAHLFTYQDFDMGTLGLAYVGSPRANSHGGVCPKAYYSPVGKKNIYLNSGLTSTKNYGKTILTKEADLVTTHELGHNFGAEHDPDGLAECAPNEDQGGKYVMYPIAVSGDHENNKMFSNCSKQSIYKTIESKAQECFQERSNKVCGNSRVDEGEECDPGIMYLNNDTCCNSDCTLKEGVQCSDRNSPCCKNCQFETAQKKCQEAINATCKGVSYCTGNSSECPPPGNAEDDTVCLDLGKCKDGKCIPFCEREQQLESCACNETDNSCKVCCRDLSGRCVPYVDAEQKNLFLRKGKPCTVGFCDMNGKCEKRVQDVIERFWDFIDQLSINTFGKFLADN
From the text: as §1

[3] = target: T1, recombinant human ADAMTS15 (R&D Systems) (human, UniProt Q8TE58 213-950, limits assumed)
T1 sequence (looked up): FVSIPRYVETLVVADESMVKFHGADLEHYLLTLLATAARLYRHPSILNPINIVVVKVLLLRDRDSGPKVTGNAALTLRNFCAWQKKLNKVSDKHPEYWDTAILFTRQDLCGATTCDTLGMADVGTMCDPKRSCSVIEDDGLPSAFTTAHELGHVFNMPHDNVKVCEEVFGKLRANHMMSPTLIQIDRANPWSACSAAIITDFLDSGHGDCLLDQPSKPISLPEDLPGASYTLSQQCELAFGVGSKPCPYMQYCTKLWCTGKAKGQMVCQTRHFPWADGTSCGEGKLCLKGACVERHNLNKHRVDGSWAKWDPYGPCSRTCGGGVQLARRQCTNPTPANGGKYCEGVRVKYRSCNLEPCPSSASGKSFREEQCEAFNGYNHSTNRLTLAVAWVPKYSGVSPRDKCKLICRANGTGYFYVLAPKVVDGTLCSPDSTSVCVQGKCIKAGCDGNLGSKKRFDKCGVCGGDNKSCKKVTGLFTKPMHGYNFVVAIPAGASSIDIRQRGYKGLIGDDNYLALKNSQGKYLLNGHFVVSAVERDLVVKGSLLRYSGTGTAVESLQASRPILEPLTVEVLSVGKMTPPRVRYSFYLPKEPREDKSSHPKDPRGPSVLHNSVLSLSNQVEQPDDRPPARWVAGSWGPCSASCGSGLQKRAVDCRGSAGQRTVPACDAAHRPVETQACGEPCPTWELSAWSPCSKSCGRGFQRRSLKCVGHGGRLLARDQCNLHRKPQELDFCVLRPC
From the text: as §1

[4] = target: T2, purified human MMP-2 (Daiichi Fine Chemical) (human, UniProt P08253 30-660, limits assumed)
T2 sequence (looked up): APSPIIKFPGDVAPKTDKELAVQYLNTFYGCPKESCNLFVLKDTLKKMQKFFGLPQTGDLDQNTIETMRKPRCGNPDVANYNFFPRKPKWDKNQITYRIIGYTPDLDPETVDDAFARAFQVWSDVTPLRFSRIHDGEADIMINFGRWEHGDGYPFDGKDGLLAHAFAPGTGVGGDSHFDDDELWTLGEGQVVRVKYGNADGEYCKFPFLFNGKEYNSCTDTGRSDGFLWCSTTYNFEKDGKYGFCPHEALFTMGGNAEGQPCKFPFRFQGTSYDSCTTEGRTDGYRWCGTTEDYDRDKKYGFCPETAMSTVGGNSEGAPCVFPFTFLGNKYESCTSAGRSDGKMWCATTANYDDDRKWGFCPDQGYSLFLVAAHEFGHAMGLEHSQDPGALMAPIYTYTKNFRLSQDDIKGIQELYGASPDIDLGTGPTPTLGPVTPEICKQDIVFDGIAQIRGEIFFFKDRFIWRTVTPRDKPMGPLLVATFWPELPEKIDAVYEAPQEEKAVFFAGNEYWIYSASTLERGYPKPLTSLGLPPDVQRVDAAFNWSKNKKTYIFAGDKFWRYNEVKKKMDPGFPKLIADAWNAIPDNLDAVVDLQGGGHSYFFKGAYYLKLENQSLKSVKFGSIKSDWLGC
From the text: as §1

[5] = target: recombinant human MMP-13 (Millipore) (human, UniProt P45452 20-471, limits assumed)
From the text: as §1

[6] = target: T3, purified human MMP-1 (Daiichi Fine Chemical) (human, UniProt P03956 20-469, limits assumed)
T3 sequence (looked up): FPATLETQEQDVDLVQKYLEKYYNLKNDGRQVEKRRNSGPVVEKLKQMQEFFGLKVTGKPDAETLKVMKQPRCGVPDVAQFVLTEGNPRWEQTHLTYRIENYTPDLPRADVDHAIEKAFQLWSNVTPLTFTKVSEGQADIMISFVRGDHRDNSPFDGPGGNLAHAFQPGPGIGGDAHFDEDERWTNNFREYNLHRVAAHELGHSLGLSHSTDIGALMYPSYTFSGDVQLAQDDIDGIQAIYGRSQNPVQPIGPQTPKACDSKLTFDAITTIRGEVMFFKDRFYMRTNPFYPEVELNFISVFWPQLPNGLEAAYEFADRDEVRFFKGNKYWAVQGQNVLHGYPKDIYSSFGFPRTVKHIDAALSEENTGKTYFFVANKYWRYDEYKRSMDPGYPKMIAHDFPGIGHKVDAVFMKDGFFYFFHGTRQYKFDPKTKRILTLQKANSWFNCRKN
From the text: as §1

Measured: binding result

Chain of purified human MMP-9 (Daiichi Fine Chemical) (P14780 20-707 limits assumed): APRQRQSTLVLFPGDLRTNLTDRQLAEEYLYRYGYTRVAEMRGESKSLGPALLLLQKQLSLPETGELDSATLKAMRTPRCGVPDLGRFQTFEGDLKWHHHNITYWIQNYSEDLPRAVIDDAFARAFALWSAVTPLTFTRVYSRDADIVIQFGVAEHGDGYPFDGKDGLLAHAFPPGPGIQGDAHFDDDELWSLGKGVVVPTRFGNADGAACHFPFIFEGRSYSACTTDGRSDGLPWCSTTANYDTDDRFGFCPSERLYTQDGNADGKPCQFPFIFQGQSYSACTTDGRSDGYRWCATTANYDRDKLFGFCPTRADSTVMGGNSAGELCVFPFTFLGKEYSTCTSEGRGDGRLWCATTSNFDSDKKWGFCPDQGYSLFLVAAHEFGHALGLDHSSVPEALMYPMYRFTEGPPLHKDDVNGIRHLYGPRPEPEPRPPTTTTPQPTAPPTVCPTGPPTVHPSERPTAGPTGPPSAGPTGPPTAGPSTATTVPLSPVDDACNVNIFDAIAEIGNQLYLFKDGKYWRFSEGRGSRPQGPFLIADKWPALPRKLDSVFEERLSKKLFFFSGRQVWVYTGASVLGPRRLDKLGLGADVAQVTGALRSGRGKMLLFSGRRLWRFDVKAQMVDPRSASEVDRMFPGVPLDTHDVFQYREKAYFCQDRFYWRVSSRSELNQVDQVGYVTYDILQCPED

B1: Fab of clone 237-53 (Fab, V domains shown)
VH: QVQLVQSGAEVKKPGSSVKVSCKASGGTFSSFAISWVRQAPGQGLEWMGGIFPIFGQANYAQKFQGRVTITADESTSTAYMELSSLRSEDTAVYYCARFSDWWEWQMDYWGQGTLVTVSS
VL: DIVMTQSPDSLAVSLGERATINCRSSQSILYSSNNNYLAWYQQKPGQPPKLLIHTASARESGVPDRFSGSGSGTDFTLTISSLQAEDVAVYYCQQYYSVSITFGQGTKVEIKR
no binding (tested: 5 µg/ml): [1] | [2] | [3] | [4] | [5] | [6]
